According to patent US20230303681A1 (published 2023):
Values joined by “and” are separate entries in the source; they are usually repeats but may differ in a detail not shown here. Equal entries are not always repeated.

Assays:
[1] = biological target: T1, human TMEM106B (human, UniProt Q9NUM4 2-274); experiment: FACS A549
T1 construct: Full-length, on transiently transfected HEK293 cells, or natively expressed on HeLa, U251 and A549 cells; also called huTMEM106B; huTMEM
Description: (§1) All cells were cultured in either T75 or T150 flasks. […] The enzyme was quenched by addition of fresh media, and the cells were then distributed into 96-well plates for FACS analysis.
(§2) FACS analysis was performed as follows. Each cell type was aliquoted in 96-well round bottom plates (2x10^5 cells per well), washed once with FACS buffer (PBS + 2% FBS + 1 mM EDTA), and incubated with 50 µL of hybridoma supernatant or purified antibody (10 µg/ml in FACS buffer) on ice for 1 hour. […] Following this secondary incubation, the cells were again washed 2x with ice-cold FACS buffer and resuspended in a final volume of 50 µL of FACS buffer + 0.25 µl/well propidium iodide (Fisher Scientific # BDB556463). Analysis was performed on a FACSCanto system (BD Biosciences) or iQue (Intellicyt), with sort gates drawn to exclude dead (i.e., propidium iodide positive) cells.
(§3) Data is presented as mean fluorescence intensity (MFI).

[2] = biological target: T1, human TMEM106B; experiment: FACS HeLa;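 also: flow cytometry of cells incubated with hybridoma supernatant or purified antibody at 10 µg/ml for 1 h on ice, propidium iodide–positive dead cells gated out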
Description: as §1, §2, §3

[3] = biological target: T1, human TMEM106B; experiment: FACS U251;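 also: flow cytometry of cells exposed to antibody (purified at 10 µg/mL, or hybridoma supernatant) for 1 h on ice, with propidium iodide-positive dead cells gated out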
[4] = biological target: T2, mouse TMEM106B (mouse, UniProt Q80X71 2-275); experiment: FACS Neuro2a;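 also: flow cytometry of cells stained with antibody or hybridoma supernatant (purified antibody at 10 µg/ml) for 1 h on ice, propidium iodide–positive dead cells gated out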
T2 construct: on transiently transfected HEK293 cells, or natively expressed on mouse Neuro2a cells; also called moTMEM106B; murine TMEM106B

[5] = biological target: T3, GST (Pierce) (UniProt P08515 1-218 = GST, limits assumed); experiment: ELISA, coated GST;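 also: ELISA on plates coated with GST alone at 1-10 µg/ml, antibodies applied at 100-1000x dilution, bound antibody detected by peroxidase substrate colour after acid stop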
T3 construct: control for the GST part of the fusion protein; also called GST protein; Glutathione-S-transferase

[6] = biological target: T1, human TMEM106B; experiment: FACS A549, 1 ug/ml
Description: (§4) Purified anti-TMEM106B antibodies were evaluated for their binding affinity to various TMEM106B-expressing cell lines including HEK293 transiently transfected with human/cyno/mouse TMEM106B, as well as HeLa cells and A549 cells. Antibodies tested for this experiment were mouse IgGs purified from hybridoma supernatant. Affinity binding to cells was determined as follows. Briefly, 1x10^5 cells were aliquoted per well in 96-well round bottom plates and incubated with 50 µL of purified anti-TMEM106B antibody at various concentrations (10x dilutions starting at 10 µg/ml) in FACS buffer (PBS + 2% FBS + 1 mM EDTA). […] Sorting was performed on a iQue (Intellicyt), with sort gates drawn to exclude dead (propidium iodide +) cells. Binding data was analyzed using median fluorescent intensity (MFI) and graphed in Prism. Values presented are MFI.

[7] = biological target: T1, human TMEM106B; experiment: FACS A549, 10 ug/ml
[8] = biological target: T1, human TMEM106B; experiment: FACS, HEK293 transfectants;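 as to fold over negative controls: hybridoma supernatants incubated 30 min on ice with human TMEM106B-expressing HEK293 cells, binding read as anti-mouse-APC median fluorescence on live cells, relative to secondary-antibody-only wells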;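 as to fold-change over parental HEK293: flow cytometry binding of hybridoma supernatants to HEK293 cells transiently expressing human, cyno or mouse TMEM106B, read as anti-mouse-APC median fluorescence, live cells only, 30 min on ice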
Description: Initial screening of the anti-TMEM106B hybridomas was performed as follows.
For screening of the hybridoma cell culture supernatants, humanTMEM106B-transfected HEK293 cells were aliquoted in 96-well round bottom plates (2x10^5 cells per well) and incubated with 50 µL of hybridoma cell culture supernatant on ice for 30 minutes. […] Cell sorting was performed on a FACS Canto system (BD Biosciences) or iQue (Intellicyt), with sort gates drawn to exclude dead (i.e., propidium iodide-positive) cells. Median fluorescence intensity (MFI) of anti-mouse-APC MFI on TMEM106B+ HEK293 cells was calculated for each clone, and those displaying a signal of at least 2-fold over background compared to a secondary-antibody only well were taken forward for further analysis and characterization.

[9] = biological target: T4, GST-fusion human TMEM106B truncated (human); experiment: array SPR, Ab immobilised;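 also: antibodies amine-coupled on an MX-96 chip, antigen flowed at 500 nM top concentration in 5-fold serial dilutions, GST alone run as nonspecific-binding control, duplicate measurements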
T4 construct: also called GST-TMEM106B-truncated protein; GST-TMEM106B (truncated)

[10] = biological target: T1, human TMEM106B; experiment: FACS HEK+huTMEM, 10 ug/ml;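 also: purified mouse IgG antibodies at 10 µg/ml bound to HEK293 cells transiently expressing human TMEM106B, measured by flow cytometry as median fluorescence intensity of propidium iodide negative live cells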
[11] = biological target: T1, human TMEM106B; experiment: FACS, HEK293 transfectants; remark: listed apart in the source;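 as to fold over negative controls: hybridoma supernatants incubated 30 min on ice with human TMEM106B-expressing HEK293 cells, binding read as anti-mouse-APC median fluorescence on live cells, relative to secondary-antibody-only wells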;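 as to fold-change over parental HEK293: flow cytometry binding of hybridoma supernatants to HEK293 cells transiently expressing human, cyno or mouse TMEM106B, read as anti-mouse-APC median fluorescence, live cells only, 30 min on ice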
Description: (§5) For screening of the hybridoma cell culture supernatants, humanTMEM106B-transfected HEK293 cells were aliquoted in 96-well round bottom plates (2x10^5 cells per well) and incubated with 50 µL of hybridoma cell culture supernatant on ice for 30 minutes. […] Median fluorescence intensity (MFI) of anti-mouse-APC MFI on TMEM106B+ HEK293 cells was calculated for each clone, and those displaying a signal of at least 2-fold over background compared to a secondary-antibody only well were taken forward for further analysis and characterization.

[12] = biological target: T5, cynomolgus (cyno) TMEM106B (cynomolgus, UniProt Q9NUM4 2-274 (human entry)); experiment: FACS, HEK293 transfectants;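 also: flow cytometry binding of hybridoma supernatants to HEK293 cells transiently expressing human, cyno or mouse TMEM106B, read as anti-mouse-APC median fluorescence, live cells only, 30 min on ice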
T5 construct: on transiently transfected HEK293 cells
Description: as §5

[13] = biological target: T2, mouse TMEM106B; experiment: FACS, HEK293 transfectants;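 also: flow cytometry binding of hybridoma supernatants to HEK293 cells transiently expressing human, cyno or mouse TMEM106B, read as anti-mouse-APC median fluorescence, live cells only, 30 min on ice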
Description: as §5

[14] = biological target: T1, human TMEM106B; experiment: FACS HEK+huTMEM, 0.1 ug/ml;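 also: flow cytometry binding of purified mouse IgG antibodies to HEK293 cells transiently expressing TMEM106B, read as median fluorescence intensity with propidium iodide positive dead cells gated out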
Description: as §4

[15] = biological target: T1, human TMEM106B; experiment: FACS HEK+huTMEM, 1.0 ug/ml
[16] = biological target: T1, human TMEM106B; experiment: FACS HEK+huTMEM, 0.01 ug/ml
Description: as §4

[17] = biological target: T3, GST (Pierce); experiment: array SPR, Ab immobilised

Binder | MFI [1] | MFI [2] | MFI [3] | MFI [4] | binding result [5] | MFI [6] | MFI [7] | fold over negative controls [8] [fold] | Kd [9] | koff [9] | kon [9] | MFI [10] | fold-change over parental HEK293 [11] [fold] | fold-change over parental HEK293 [12] [fold] | fold-change over parental HEK293 [13] [fold] | MFI [14] | MFI [15] | MFI [16] | binding result [17]
anti-TMEM106B antibody TM-5 (antibody, V domains shown) VH: QVQLQQSGTELARPGASVKVSCKASGYIFTTYGITWVKQRGGQGLEWIGEIYPRSDNTYYNEKFKDKATLTADKSSSTAYMELRSLTSEDSAVYFCARSKGSGTGDYWGQGTTVTVSS VL: DIQMTQSPASLSASVGETVTITCRASENIYIYLAWYQQKQGKTPQLLVYNGKMLAENVPSRFSGSGSGTQFSLKINSLQPEDFGSYYCQHHYGSPPAFGAGTKLELK | 1170 | 1740 | 866 | 1610 | no binding | 1970 | 4800 | > 2 | 1.4 nM and 1.8 nM | 3.3e-05 s⁻¹ and 4.8e-05 s⁻¹ | 23000 M⁻¹ s⁻¹ and 26000 M⁻¹ s⁻¹ | 59300 | 11.4 | 37 | 26.6 | 10800 | 64500 | 2180 | 
anti-TMEM106B antibody TM-7 (antibody, V domains shown) VH: EVQLQQSGPVLVKPGPPVKISCKASGFTFTDYYIHWVKLSHGKSLEWIGLVYPYNGDTDYNQKFKGKATLTVDTSSSTAYMELNSLTSEDSAVYYCARTYYANSPDYWGQGTTVTVSS VL: DIVMTQSPSSLSVSAGEKVTMSCKSSQSLLNSGNQRNYLAWYQQKPGQPPKLLIYGASTRESGVPDRFTGSGSGTDFTLTISNVQAEDLAVYYCQNDHSYPLTFGAGTKLELK | 647 | 1070 | 442 | 1200 | no binding | 883 | 1810 | > 2 |  |  | 9900 M⁻¹ s⁻¹ and 10000 M⁻¹ s⁻¹ | 40800 | 17.5 | 47.5 | 15.5 | 9870 | 40000 | 1670 | 
anti-TMEM106B antibody TM-9 (antibody, V domains shown) VH: EVQLVESGGDLVKPGGSLKLSCVASGFTFSGYGMSWVRQTPDKRLEWVATISSGSFYIYYPDSVKGRLTVSRDNAKNTLYLQMSSLKSEDTAIYYCARQNFYYGCEDYWGQGTTLTVSS VL: DIVMTQAAFSNPVTLGTSASISCRSSKSLLHSNGITYLYWYLQKPGQSPQLLIYQMSNLASGVPNRFSSSGSGTDFTLRISRVEAEDVGVYYCAQNLELPWTFGGGTKLEIK | 1990 | 2540 | 1540 | 2710 | no binding | 4880 | 7090 | > 2 | 4.2 nM and 5.2 nM | 8.3e-05 s⁻¹ and 8.4e-05 s⁻¹ | 20000 M⁻¹ s⁻¹ and 16000 M⁻¹ s⁻¹ | 56400 | 10.7 | 22.3 | 8.52 | 28300 | 62100 | 3940 | 
anti-TMEM106B antibody TM-42 (antibody, V domains shown) VH: QVQLQQSGAELAKPGASVKLSCKASGYTFTNYWMHWVKKRPGQGLEWIGYINPSSGYTKYNQKFKDKATLTADKSSNTAYMQLSSLTYEDSAVYYCTREGGSISDWYFDVWGTGTTVTVSS VL: DIVMTQAAPSLPVTPGESVSISCRSSKSLLHSNGNTYLYWFLQRPGQSPQLLIYRMSNLASGVPDRFSGSGSGTAFTLRISRVEAEDVGVYYCMQHLEYPYTFGGGTKLEIK | 947 | 215 | 326 | 237 |  | 1780 | 3300 |  | 33 nM and 24 nM |  |  | 60100 |  |  |  | 16700 | 58100 | 2070 | no binding
anti-TMEM106B antibody TM-37 (antibody, V domains shown) VH: QVQLQQSGAELAKPGASVKLSCKASGYTFTSYWMHWVKQRPGQGLEWIGYVNPSSGYTKNNQKFKDKVTLTADKSSSTAYMQLSSLTYEDSAVYYCAREGGSISDWYFDVWGTGTTVTVSS VL: DIVMTQAAPSVPVTPGESVSISCRSSKSLLHSNGNTYSYWFLQRPGQSPQLLIYRMSNLASGVPDRFSGSGSGTAFTLRISRVEAEDVGVYYCMQHLEYPYTFGGGTKLEIK | 1040 | 254 | 408 | 208 |  | 2980 | 4210 |  | 2.6 nM and 6.3 nM |  |  | 50500 |  |  |  | 29400 | 58700 | 3920 | no binding
anti-TMEM106B antibody TM-45 (antibody, V domains shown) VH: QVQLQQSGAELAKPGASVKLSCKASGYTFTNYWMHWVKKRPGQGLEWIGYINPSSGYTKYNQKFKDKATLTADKSSNTAYMQLSSLTYEDSAVYYCTREGGSISDWYFDVWGTGTTVTVSS VL: DIVMTQAAPSLPVTPGESVSISCRSSKSLLHSNGNTYLYWFLQRPGQSPQLLIYRMSNLASGVPDRFSGSGSGTAFTLRISRVEAEDVGVYYCMQHLEYPYTFGGGTKLEIK | 819 | 191 | 517 | 187 |  | 1860 | 3240 |  | 19 nM and 18 nM |  |  | 58100 |  |  |  | 21300 | 57600 | 2500 | no binding
anti-TMEM106B antibody TM-39 (antibody, V domains shown) VH: HVQRQQSGTELAKPGASVKLSCKTSGYTFTDYWMHWIKQRPGQGLEWIGFINPSSGYTKYNQNFKDKATLTADKSSSTAYMQLSSLTYEDSAVFYCAREAGSISDWYFDVWGTGTTVTVSS VL: DIVMTQAAPSIPVTPGESVSISCRSSKTLLNSNGNTYLYWFLQRPGQPPQLLIYRMSNLASGVPDRFSGSGSGTAFTLRISRVEAEDVGVYYCMQHLDYPYTFGGGTQLEIK |  |  |  |  |  | 3610 | 5330 | > 2 | 4.1 nM and 2.2 nM | 5.8e-05 s⁻¹ and 3e-05 s⁻¹ | 14000 M⁻¹ s⁻¹ | 51900 |  |  |  | 19200 | 55600 | 3850 | no binding
anti-TMEM106B antibody TM-34 (antibody, V domains shown) VH: EVQLVESGGGLVKPGGSLKLSCAASGFSFSDSGMDWVRQAPEKGLEWFAYISSGSSTTHYADTVKGRFIISRDNAKNTLFLQMTSLRSEDTAMYYCVRRDGNYWYFDVWGTGTTVTVSS VL: QIVLSQSPVILSASPGEKVTMTCRATSSVTYMHWYQLKPGSSPKPWIYATSNLASGVPARFSGSGSGTSYSLTISRVEAEDAATYYCQQWSSNPYTFGGGTKLEIK |  |  |  |  |  |  |  |  |  |  |  |  |  |  |  |  |  |  | no binding
anti-TMEM106B antibody TM-46 (antibody, V domains shown) VH: QVQLQQSGADLVKPGASVKISCKASGYAFSSFWMNWVKLRPGKGLEWIGQIYPGDGDTDYNGKFKDKATLTADTSSNTAYMQLSRLTSEDSAVYFCARGDGFSYFDYWGQGTILTVSS VL: QIVLTQSPVIMSASPGERVTMTCCASSRVNYMHWYQQKSGSYPKRWIYDTSKLASGVPGRFSGSGSGTSYSLTISSMEAEDAATYYCQQWSSNPPTFGGGTKLEIK |  |  |  |  |  |  |  |  |  |  |  |  |  |  |  |  |  |  | no binding
anti-TMEM106B antibody TM-47 (antibody, V domains shown, mouse IgG from hybridoma) VH: QVQLKESGPVLVAPSQSLSITCTVSGFSLTNYGVHWVRQPPGKGLEWLGVIWAGGNTNYNSALMSRLSISKDNSKSQVFLKMNSLQTDDTAMYYCAKEAKLLRSYAMDYWGQGTSVTVSS VL: DIVMTQSPSSLTVTAGEKVTMSCKSSQSLLNSGNQKNYLTWYQQKPGQPPKLLIYWASTRESGVPDRFTGSGSGTDFTLTISSVQAEDLAVYYCQNDYSYPLTFGAGTKLEIK |  |  |  |  |  |  |  |  |  |  |  |  |  |  |  |  |  |  | no binding
anti-TMEM106B antibody TM-51 (antibody, V domains shown, mouse IgG from hybridoma) VH: QVQLQQPGAELVKPGASVKLSCKASGYTFTTYWIDWVKQRPGQGLEWIGNMFPGSSRTNYNEKFKSRATLTVDTSSSTAYMQLSSLTSDDSAVYYCARKEGLWTYGYDGGAWFAYWGQGTLVTVSA VL: DIVMSQSPSSLAVSVGEKVTMSCKSSQSLRNSRTRKNYLAWYQQKPGQSPKLLIYWASTRESGVPDRFTGSGSGTDFTLTISSVQAEDLAIYYCKQSYNLLTFGAGTKLELK |  |  |  |  |  |  |  |  |  |  |  |  |  |  |  |  |  |  | no binding
